T1: hCD96-humanIgG1 fusion protein (human) (UniProt P40200)
T1 sequence: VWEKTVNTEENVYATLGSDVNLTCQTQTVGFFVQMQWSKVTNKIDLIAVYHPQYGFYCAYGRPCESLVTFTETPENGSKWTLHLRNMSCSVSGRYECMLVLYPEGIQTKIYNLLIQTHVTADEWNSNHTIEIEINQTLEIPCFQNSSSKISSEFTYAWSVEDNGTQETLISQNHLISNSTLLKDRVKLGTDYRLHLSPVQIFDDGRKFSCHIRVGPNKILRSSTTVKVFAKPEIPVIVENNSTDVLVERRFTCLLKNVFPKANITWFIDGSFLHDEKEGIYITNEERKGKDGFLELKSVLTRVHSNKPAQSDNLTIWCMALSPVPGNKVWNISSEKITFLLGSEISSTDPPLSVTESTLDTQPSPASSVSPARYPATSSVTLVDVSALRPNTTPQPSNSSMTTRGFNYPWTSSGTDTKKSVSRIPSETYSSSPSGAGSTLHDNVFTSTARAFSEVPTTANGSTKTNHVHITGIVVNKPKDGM

B1: BL006-19-29G5-29K1 (antibody, V domains shown)
VH: QVTLKESGPGILQSSQTLSLTCSFSGFSLSTFGMGVSWIRKPSGKGLEWLAHIFWDDDKRYNPSLKSRLTISKDTSSNQVFLMINSMDIADTATYYCTRGSNWFAYWGQGTLVTVSA
VL: DIVLTQSPASLAVSLGQRATISCRASESVDSYGNSFMHWYQQKPGQPPKLLIYRASNLESGIPARFSGSGSRTDFTLTINPVEADDVATYYCQQSNEDPLTFGAGTKLELK
B2: BL006-4-20G5-20K5 (antibody, V domains shown)
VH: EVQLAESGGDLVTPGGSLKLSCAASGFTFSSYGMSWVRQTPDKRLEWVATITHGGSYIYYPDSVKGRFTLSRDNAKNTLYLQMSSLKSEDTAMYYCIRHADYARFAYWGQGTLVTVSA
VL: DIQMTQTTSSLSASLGDRVTISCRPSQDISNYLNWYQQKPDGTVKLLIYYTSRLHSGVPSRFSGSGSGTDYSLTISNLEQEDIATYFCQQGNTLPWTFGGGTKLEIK
B3: BL006-9-1G1-1K1 (antibody, V domains shown)
VH: EVKLVESGGGLVKPGGSLKLSCAASGFTFSSYAMSWVRQTPERGLEWVAAIQSNGGSTFYPDTVKDRFTISRDNAKNTLYLQMSSLRSEDTALYYCVRGPFDYWGQGTTLTVSS
VL: QIVLTQSPAIMSASPGQKVTIPCSASSSVNYIHWFQQKLGSSPKLWIYDTSKLTPGVPARFSGSGSGTSYSLTISSMEAEDAASYFCHQWRSYPPTFGGGTKLEIK
B4: BL006-19-190G4-190K6 (antibody, V domains shown)
VH: EVQLVESGGGLVQPGGSLKLSCAASGFTFSNYGMSWVRQTPDKRLELVATINSNGGSTYYPDSVKGRFTISRDNAKNTLYLQMSSLKSEDTAMYYCTKRGAWYFDVWGTGTTVTVSS
VL: DIQMTQSSSSFSVSLGDRVTITCKASEDIYNRLAWYQQKPGNAPRLLISSATSLETGVSSRFSGSGSGKDYTLSITSLQTEDVATYYCQQYWTTPTWTFGGGTKLEIK
B5: BL006-19-183G3-183K4 (antibody, V domains shown)
VH: QVTLNESGPGILQPSQTLSLTCSFSGFSLTTYGMGVGWIRQPSGKSLEWLANIWWTEDKYYNSALKSRLTISTDTSHNQVFLKISSVDTEDTATYYCAQMGPEVYSAMDYWGQGTSVTVSS
VL: DIVMTPSQKFMSTTVGDRVSITCKASQNVGTAVAWYQQKPGHSPKLLIYSASNRNTGVPDRFTGSGSGTDFTLTISNMQSEDLADYFCHQYSRYPWTFGGGTKLEIK
B6: BL006-4-61G5-61K1 (antibody, V domains shown)
VH: EVKLEESGGGLVQPGGSMKLSCVASGFTFSNYWMNWVRQSPEKGLEWVAQIRFKSDNYATHYAESVKGRFTISRDDSKSSVYLQMHNLRAEDTGIYYCTEFAYWGQGTLVTVSA
VL: QILLTQSPAIMSASPGEKVTMTCSASSRVNSRFLNWYQQKSGVSPKLWIYGTSNLASGVPARFSGSGSGTSYSLTISSVEAEDVATYYCQQYQSDPPITFGAGTRLELI
B7: BL006-11-5G1-5K3 (antibody, V domains shown)
VH: EVQLVESGGGLVKPGGSLKLSCAASGFTFSSYAMSWVRQTPEKRLEWVAAINTDGASTYFPATVKDRFTISRDNAKNTLYLQMSSLRSEDTALYYCARPLEPGSWFAYWGQGTLVTVSA
VL: DVLMTQTPLSLPVSLGDQASISCRSSQSIVHSNGNTYLEWYLQKPGQSPKVLIYKVSNRFSGVPDRISGSGSGTDFTLKISRVEAGDLGVYYCFQGSHVPYTFGGGTKLEIK
B8: BL006-8-3G9-3K4 (antibody, V domains shown)
VH: QVQLQQSGAELVRPGASVKLSCKASGYRFTDYEMEWVKQTPVHGLEWIGAIDPETGGTAYNQKFKGKATVTADKSSRTAYMELRSLTSEDSAVYYCTREGDGSYGAYWGQGTLVTVSA
VL: B7 VL with L3M, H31Y, V51L, I53M, I67F, G86E, V99A, Y101W
B9: BL006-9-15G1-15K5 (antibody, V domains shown)
VH: QAYLQQSGAELVRPGASVKMSCKASGYTFTSYNMHWVKQTPRQGLEWIGAVIPGNGDSFYNQKFKGKATLTVDKSSSTAYMQLSSLTSEDSAVYFCGRSSSGCIAYWGQGTLVTVSA
VL: DIVLTQSPASLAVSLGQRATISCRVSGSVDYDGDSYMNWYQQKPGQPPKLLIYAASNLESGIPARFSGSGSETDFTLNIHPVEEEDAATYYCLQSNEAPWTFGGGTKVEIK
B10: BL006-19-21G1-21K1 (antibody, V domains shown)
VH: QVQLQQPGAELVKPGASVKMSCKASGYTFISYWITWVKQRPGQGLEWIGDIYPGSGHTNYNEKFKSKATLTVDTSSSTAYMQLSSLTSEDSAVYYCARPTVEAMDYWGQGTSVTVSS
VL: QIVLTQSPAIMSASPGEKVTMTCSASSSVNYMHWYQQRSGTSPKRWIYDTSKLASGVPARFSGSGSGTSYSLTISSMEAEDAATYYCQQWSNNPLTFGAGTKLELK
B11: BL006-19-370G9-370K16 (antibody, V domains shown)
VH: QVQLQQSGAELGRPGTSVKMSCKAAGYTFTNYWIGWVKQRPGHGLEWIGDIYPGGGYTNYNEKFKGKATLTADTSSSTAYIQLSSLTSEDSAIYYCARSGYYDGSPLAMDYWGQGTSVTVS
VL: B10 VL with A9T, N30S, R38K, N92S, L95P, A99S, L105I
B12: BL006-4-52G6-52K7 (antibody, V domains shown)
VH: QVQLQQPGAELVKPGASVKLSCKASGYSFTSYWMHWVKQRPGQGLEWIGQIDPSDSYTNYNQKFKGKATLTVDKSSSTAYMQLSSLTSEDSAVYYCASGNYGPYLGNYFDYWGQGTTLTVPS
VL: DIVMSQSPSSLVVSVGEKVTMSCKSSQSLLHSTNQKNYLAWYQQKPGQSPKLLIYWASTRESGVPDRFTGSGSGTDFTLTISSVKAEDLVVYYCQQYYNYPYTFGGGTKLEIK
B13: BL006-19-352G9-352K8 (antibody, V domains shown)
VH: QVQLQQPGAELVKPGASVKLSCKASGYTFTSYWMHWVKQRPGQGLEWIGMIHPNGDITDYNEKFKSKATLAVDESSSTAFMQLNSLTSEDSAFYYCARASYYGSLYWGQGTTLTVSS
VL: DIVMTQSQKFMSTSVGDRVSVTCKASQNVGIAVAWYQKKPGQSPKTLIYSASTRYTGVPDRFTGSGSGTDFTLTINDVQSEDLADYFCQQYGSSPLTFGAGTKLELK
B14: BL006-19-134G5-134K4 (antibody, V domains shown)
VH: QVQLQQPGAELVKPGASVKLSCKASDYTFTTYWMHWVKQRPGQGLEWIGMIHPNSDTTLYNEKFRSQATLTVDKSSSTAYIQLSRLTSEDSAVYYCVVTGTNFDYWGQGTTLAVSS
VL: QVVLTQSPAIMSASPGEKVTMTCSATSSVSYMYWYQQKPGSSPKPWIYRTSNLASGVPVRFSGSGSGTSYSLTISSMEAEDAATYYCQQWSSNPLTFGGGTKLELK
B15: BL006-19-363G1-363K1 (antibody, V domains shown)
VH: B14 VH with D26G, M34I, H52L, D56G, L59I, T78A, I81M, V97A, A113T
VL: B14 VL with V2I, T26S, S66F, S76N, G99T
B16: BL006-19-55G10-55K7 (antibody, V domains shown)
VH: QVQLQQSGAEVVRPGTSVKMSCKAAGYTFTDNWIDWVKQRPGHGLDWIGNIFPGGNYTNYNEKFKGKATLTADTSSSTAYMQLINLTSEDSAIYYCVRAVADSQFAYWGQGTLVTVSA
VL: B14 VL with V2I, A13V, T26S, S28R, S30T, G99A
B17: BL006-4-31G1-31K3 (antibody, V domains shown)
VH: QVQLQQSGPELVKPGASVKISCKTSGFTFTDYYINWVKQRPGQGLEWIGWIFPGSGSSFYSEIFKGQATLTVDKSSSTAYMLLSSLTSEDSAVYFCARRNYYGYGAYAMDYWGQGTSVTVSS
VL: DIQMNQSPSSLSASLGDTITITCRASQSINFWLSWYQQKPGNIPKLLIYKASNLHTGVPSRFSGSGSGTDFTLTISSLQPEDIATYYCLQGQSYPLTFGGGTKLEIK

Positions count from the first letter of the chain named.

Usually Kd stands for a measure of binding affinity in units of concentration. Read a low Kd as tighter binding. The koff is the rate constant with which the complex falls apart. Low readings indicate a long-lived complex, high ones a short-lived complex. For orientation: kon means the second-order rate constant of association. A higher kon goes with faster complex formation.

The experiment deals with T1, hCD96-humanIgG1 fusion protein (human). As to the kind of experiment: SPR (Biacore), hCD96-hFc captured by anti-huFc. In general terms: SPR reads the build-up and loss of mass on a sensor chip optically.
Consider B1, for which the Kd was 0.182 nM, the koff was 0.000163 s⁻¹ and the kon amounted to 896000 M⁻¹ s⁻¹.
For B2 the same measures were 0.825 nM, 0.00057 s⁻¹ and 691000 M⁻¹ s⁻¹.
For B3, in that order: 0.198 nM, 0.00016 s⁻¹ and 810000 M⁻¹ s⁻¹.
For B4 the same measures were 2.97 nM, 0.000444 s⁻¹ and 150000 M⁻¹ s⁻¹.
As to B5, the Kd was determined as 0.45 nM, the koff turned out to be 0.000296 s⁻¹ and the kon was found to be 656000 M⁻¹ s⁻¹.
For B6, in that order: 0.364 nM, 0.000153 s⁻¹ and 420000 M⁻¹ s⁻¹.
For B7, in that order: 3.47 nM, 0.000579 s⁻¹ and 167000 M⁻¹ s⁻¹.
For B8, in that order: 0.351 nM, 0.000192 s⁻¹ and 548000 M⁻¹ s⁻¹.
As to B9, the Kd was found to be 4.6 nM, the koff is 0.00275 s⁻¹ and the kon amounted to 598000 M⁻¹ s⁻¹.
For B10, in that order: 6.75 nM, 0.000988 s⁻¹ and 146000 M⁻¹ s⁻¹.
For B11 the same measures were 42.3 nM, 0.00193 s⁻¹ and 45500 M⁻¹ s⁻¹.
Molecule B12 returned a Kd of 2.83 nM, a koff of 0.000363 s⁻¹ and a kon of 128000 M⁻¹ s⁻¹.
For B13, in that order: 23.4 nM, 0.000796 s⁻¹ and 34100 M⁻¹ s⁻¹.
For B14, in that order: 0.707 nM, 9.88e-05 s⁻¹ and 140000 M⁻¹ s⁻¹.
For B15, in that order: 3.5 nM, 0.000585 s⁻¹ and 167000 M⁻¹ s⁻¹.
B16 returned a Kd of 3.45 nM, a koff of 0.000501 s⁻¹ and a kon of 145000 M⁻¹ s⁻¹.
For B17 the same measures were 13.2 nM, 0.0007 s⁻¹ and 53100 M⁻¹ s⁻¹.
